# Test results as given in US20230330196.
# Biological target: programmed death-1 homolog (PD-1H) of mouse mononuclear bone marrow cells (UniProt Q9D659)
# Sequence (Q9D659 33-308): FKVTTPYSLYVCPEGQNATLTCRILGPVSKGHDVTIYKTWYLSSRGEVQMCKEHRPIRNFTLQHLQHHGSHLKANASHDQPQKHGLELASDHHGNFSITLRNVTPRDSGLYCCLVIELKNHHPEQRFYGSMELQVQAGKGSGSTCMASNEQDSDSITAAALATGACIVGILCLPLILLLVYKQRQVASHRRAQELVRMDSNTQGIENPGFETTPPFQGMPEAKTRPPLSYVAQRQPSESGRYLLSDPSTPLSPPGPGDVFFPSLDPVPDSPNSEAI
substance,measurement,value
MMP-13 (added to mouse osteoclast cultures),"OCL fusion and activation, ERK1/2 phosphorylation, NFATc1 and DC-STAMP upregulation in Pd-1h-/- versus WT OCLs","While MMP-13 induced WT OCL fusion and activation, these effects were completely blocked in Pd-1h-/- OCLs in tandem with a loss in MMP-13 induced ERK1/2 phosphorylation, NFATc1 and DC-STAMP upregulation"
